# Laboratory results reported in the supplement of paper PMC5998384.
# Tests used:
# HeLa Kyoto [1] = assay: solubility in G1/S (NP-40 vs SDS abundance) (log2 ratio); higher = more soluble; settings: cell cycle stage: G1/S
# HeLa Kyoto [2] = assay: melting temperature (median over replicates), in situ; higher = more thermally stable
# HeLa Kyoto [3] = assay: solubility change mitosis vs G1/S (difference of NP-40 vs SDS log2 ratios) (log2 ratio difference); higher = more soluble in mitosis
# HeLa Kyoto [4] = assay: thermal stability score vs G1/S (z-score of summed log2 fold changes over temperatures); higher = more thermally stable than in G1/S
# [5] = cell cycle stage: early G1 (4.5 h after nocodazole release)
# 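For melting temperature (median over replicates), in situ in this document: HeLa Kyoto cells synchronized by double thymidine or nocodazole block, proteins quantified by TMT10plex mass spectrometry, three independent biological replicates.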
# 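For solubility change mitosis vs G1/S (difference of NP-40 vs SDS log2 ratios) in this document: synchronized HeLa Kyoto cells (double thymidine block for G1/S, nocodazole release for mitosis), protein amounts in NP-40 versus SDS lysates quantified by mass spectrometry, three biological replicates.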
# 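For solubility in G1/S (NP-40 vs SDS abundance) in this document: HeLa Kyoto cells arrested at G1/S by double thymidine block, proteins quantified by TMT10plex mass spectrometry in mild NP-40 versus SDS extracts, three biological replicates.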
# 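For thermal stability score vs G1/S (z-score of summed log2 fold changes over temperatures) in this document: synchronized HeLa Kyoto cells, proteins quantified by TMT10plex mass spectrometry, three biological replicates, mitosis taken 0.5 h after nocodazole release, G1/S directly after double thymidine block.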
Substance,solubility in G1/S (log2) (HeLa Kyoto [1]),melting temperature (HeLa Kyoto [2]; cell cycle stage: G1/S),melting temperature (HeLa Kyoto [2]; cell cycle stage: mitosis),solubility change mitosis (log2) (HeLa Kyoto [3]),thermal stability score (HeLa Kyoto [4]; [5]),thermal stability score (HeLa Kyoto [4]; cell cycle stage: mitosis)
MAWRRREASVGARGVLALALLALALCVPGARGRALEWFSAVVNIEYVDPQTNLTVWSVSESGRFGDSSPKEGAHGLVGVPWAPGGDLEGCAPDTRFFVPEPGGRGAAPWVALVARGGCTFKDKVLVAARRNASAVVLYNEERYGNITLPMSHAGTGNIVVIMISYPKGREILELVQKGIPVTMTIGVGTRHVQEFISGQSVVFVAIAFITMMIISLAWLIFYYIQRFLYTGSQIGSQSHRKETKKVIGQLLLHTVKHGEKGIDVDAENCAVCIENFKVKDIIRILPCKHIFHRICIDPWLLDHRTCPMCKLDVIKALGYWGEPGDVQEMPAPESPPGRDPAANLSLALPDDDGSDDSSPPSASPAESEPQCDPSFKGDAGENTALLEAGRSDSRHGGPIS [RNF149],-0.136,53.8 °C,54.1 °C,-0.076,-0.202,-3.79
SMG1,-0.17,50.3 °C,50.2 °C,-0.102,-0.61,-0.143
MSQPPPPPPPLPPPPPPPEAPQTPSSLASAAASGGLLKRRDRRILSGSCPDPKCQARLFFPASGSVSIECTECGQRHEQQQLLGVEEVTDPDVVLHNLLRNALLGVTGAPKKNTELVKVMGLSNYHCKLLSPILARYGMDKQTGRAKLLRDMNQGELFDCALLGDRAFLIEPEHVNTVGYGKDRSGSLLYLHDTLEDIKRANKSQECLIPVHVDGDGHCLVHAVSRALVGRELFWHALRENLKQHFQQHLARYQALFHDFIDAAEWEDIINECDPLFVPPEGVPLGLRNIHIFGLANVLHRPIILLDSLSGMRSSGDYSATFLPGLIPAEKCTGKDGHLNKPICIAWSSSGRNHYIPLVGIKGAALPKLPMNLLPKAWGVPQDLIKKYIKLEEDGGCVIGGDRSLQDKYLLRLVAAMEEVFMDKHGIHPSLVADVHQYFYRRTGVIGVQPEEVTAAAKKAVMDNRLHKCLLCGALSELHVPPEWLAPGGKLYNLAKSTHGQLRTDKNYSFPLNNLVCSYDSVKDVLVPDYGMSNLTACNWCHGTSVRKVRGDGSIVYLDGDRTNSRSTGGKCGCGFKHFWDGKEYDNLPEAFPITLEWGGRVVRETVYWFQYESDSSLNSNVYDVAMKLVTKHFPGEFGSEILVQKVVHTILHQTAKKNPDDYTPVNIDGAHAQRVGDVQGQESESQLPTKIILTGQKTKTLHKEELNMSKTERTIQQNITEQASVMQKRKTEKLKQEQKGQPRTVSPSTIRDGPSSAPATPTKAPYSPTTSKEKKIRITTNDGRQSMVTLKSSTTFFELQESIAREFNIPPYLQCIRYGFPPKELMPPQAGMEKEPVPLQHGDRITIEILKSKAEGGQSAAAHSAHTVKQEDIAVTGKLSSKELQEQAEKEMYSLCLLATLMGEDVWSYAKGLPHMFQQGGVFYSIMKKTMGMADGKHCTFPHLPGKTFVYNASEDRLELCVDAAGHFPIGPDVEDLVKEAVSQVRAEATTRSRESSPSHGLLKLGSGGVVKKKSEQLHNVTAFQGKGHSLGTASGNPHLDPRARETSVVRKHNTGTDFSNSSTKTEPSVFTASSSNSELIRIAPGVVTMRDGRQLDPDLVEAQRKKLQEMVSSIQASMDRHLRDQSTEQSPSDLPQRKTEVVSSSAKSGSLQTGLPESFPLTGGTENLNTETTDGCVADALGAAFATRSKAQRGNSVEELEEMDSQDAEMTNTTEPMDHS [VCPIP1],-0.111,48.3 °C,48.8 °C,-0.0432,1.21,1.02
MKNQDKKNGAAKQSNPKSSPGQPEAGPEGAQERPSQAAPAVEAEGPGSSQAPRKPEGAQARTAQSGALRDVSEELSRQLEDILSTYCVDNNQGGPGEDGAQGEPAEPEDAEKSRTYVARNGEPEPTPVVNGEKEPSKGDPNTEEIRQSDEVGDRDHRRPQEKKKAKGLGKEITLLMQTLNTLSTPEEKLAALCKKYAELLEEHRNSQKQMKLLQKKQSQLVQEKDHLRGEHSKAVLARSKLESLCRELQRHNRSLKEEGVQRAREEEEKRKEVTSHFQVTLNDIQLQMEQHNERNSKLRQENMELAERLKKLIEQYELREEHIDKVFKHKDLQQQLVDAKLQQAQEMLKEAEERHQREKDFLLKEAVESQRMCELMKQQETHLKQQLALYTEKFEEFQNTLSKSSEVFTTFKQEMEKMTKKIKKLEKETTMYRSRWESSNKALLEMAEEKTVRDKELEGLQVKIQRLEKLCRALQTERNDLNKRVQDLSAGGQGSLTDSGPERRPEGPGAQAPSSPRVTEAPCYPGAPSTEASGQTGPQEPTSARA [TXLNA],0.802,52.5 °C,52.6 °C,0.248,0.411,-0.854
MAAVAATAAAKGNGGGGGRAGAGDASGTRKKKGPGPLATAYLVIYNVVMTAGWLVIAVGLVRAYLAKGSYHSLYYSIEKPLKFFQTGALLEILHCAIGIVPSSVVLTSFQVMSRVFLIWAVTHSVKEVQSEDSVLLFVIAWTITEIIRYSFYTFSLLNHLPYLIKWARYTLFIVLYPMGVSGELLTIYAALPFVRQAGLYSISLPNKYNFSFDYYAFLILIMISYIPIFPQLYFHMIHQRRKILSHTEEHKKFE [HACD2],-0.368,54.2 °C,55.4 °C,0.15,0.894,-0.449
MGRTVVVLGGGISGLAASYHLSRAPCPPKVVLVESSERLGGWIRSVRGPNGAIFELGPRGIRPAGALGARTLLLVSELGLDSEVLPVRGDHPAAQNRFLYVGGALHALPTGLRGLLRPSPPFSKPLFWAGLRELTKPRGKEPDETVHSFAQRRLGPEVASLAMDSLCRGVFAGNSRELSIRSCFPSLFQAEQTHRSILLGLLLGAGRTPQPDSALIRQALAERWSQWSLRGGLEMLPQALETHLTSRGVSVLRGQPVCGLSLQAEGRWKVSLRDSSLEADHVISAIPASVLSELLPAEAAPLARALSAITAVSVAVVNLQYQGAHLPVQGFGHLVPSSEDPGVLGIVYDSVAFPEQDGSPPGLRVTVMLGGSWLQTLEASGCVLSQELFQQRAQEAAATQLGLKEMPSHCLVHLHKNCIPQYTLGHWQKLESARQFLTAHRLPLTLAGASYEGVAVNDCIESGRQAAVSVLGTEPNS [PPOX],0.0337,53.3 °C,54 °C,-0.0988,0.0829,-0.0946
SETD2,-0.43,48.1 °C,50.2 °C,0.19,0.914,2.05
